Positions count from the first letter of the chain named.
Tests used:
[1] = target: T1, rat Nectin-4 protein expressed on CHO cells (rat, UniProt Q8R007 31-508 (mouse entry)); assay: flow cytometry on CHO cells expressing rat Nectin-4, Median MFI (PE)
T1 construct: no cleavage site is stated; also called Rat Nectin-4 V5
T1 chain: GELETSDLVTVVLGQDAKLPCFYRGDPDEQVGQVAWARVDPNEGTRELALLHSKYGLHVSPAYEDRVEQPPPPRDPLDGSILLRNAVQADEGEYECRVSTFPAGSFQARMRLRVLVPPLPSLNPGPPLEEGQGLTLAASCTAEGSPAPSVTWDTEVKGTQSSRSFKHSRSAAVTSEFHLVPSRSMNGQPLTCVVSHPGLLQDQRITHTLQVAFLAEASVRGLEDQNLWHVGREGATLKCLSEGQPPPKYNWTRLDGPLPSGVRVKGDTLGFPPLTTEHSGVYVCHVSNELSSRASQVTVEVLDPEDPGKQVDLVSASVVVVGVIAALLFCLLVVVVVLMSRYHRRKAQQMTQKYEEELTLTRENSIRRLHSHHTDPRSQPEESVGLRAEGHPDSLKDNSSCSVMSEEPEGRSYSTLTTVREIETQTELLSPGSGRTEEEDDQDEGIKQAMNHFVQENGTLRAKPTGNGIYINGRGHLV
Experimental: (§1) Anti-Nectin-4 antibodies were tested by flow cytometry for binding to different CHO cell lines made to express respectively the mouse, cynomolgus and rat Nectin-4 protein (including an N-terminal V5 tag not shown in the sequences below).

[2] = target: T2, mouse Nectin-4 protein expressed on CHO cells (mouse, UniProt Q8R007 32-508); assay: flow cytometry on CHO cells expressing mouse Nectin-4
T2 construct: also called Mouse Nectin-4-V5
T2 sequence: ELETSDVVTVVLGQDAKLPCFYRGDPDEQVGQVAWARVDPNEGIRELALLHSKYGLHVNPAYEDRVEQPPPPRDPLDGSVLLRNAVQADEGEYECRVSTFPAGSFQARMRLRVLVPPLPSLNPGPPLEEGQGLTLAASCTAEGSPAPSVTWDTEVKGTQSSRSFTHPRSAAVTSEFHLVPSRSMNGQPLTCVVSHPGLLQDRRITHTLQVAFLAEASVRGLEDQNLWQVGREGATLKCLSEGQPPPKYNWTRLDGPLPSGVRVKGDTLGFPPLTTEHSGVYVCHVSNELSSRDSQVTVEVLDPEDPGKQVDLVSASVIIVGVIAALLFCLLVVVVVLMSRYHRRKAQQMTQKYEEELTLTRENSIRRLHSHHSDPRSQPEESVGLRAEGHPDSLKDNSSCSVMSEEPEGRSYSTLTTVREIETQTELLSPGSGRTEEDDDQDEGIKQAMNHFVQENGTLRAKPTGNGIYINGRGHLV

[3] = target: T3, human Nectin-4 Mutant 7bis (human, UniProt Q96NY8 32-510); assay: binding to HEK293T cells expressing Nectin-4 mutant
T3 construct: Expressed on transfected HEK293T cells; also called A72P/G73N/K197T/S199A
T3 chain: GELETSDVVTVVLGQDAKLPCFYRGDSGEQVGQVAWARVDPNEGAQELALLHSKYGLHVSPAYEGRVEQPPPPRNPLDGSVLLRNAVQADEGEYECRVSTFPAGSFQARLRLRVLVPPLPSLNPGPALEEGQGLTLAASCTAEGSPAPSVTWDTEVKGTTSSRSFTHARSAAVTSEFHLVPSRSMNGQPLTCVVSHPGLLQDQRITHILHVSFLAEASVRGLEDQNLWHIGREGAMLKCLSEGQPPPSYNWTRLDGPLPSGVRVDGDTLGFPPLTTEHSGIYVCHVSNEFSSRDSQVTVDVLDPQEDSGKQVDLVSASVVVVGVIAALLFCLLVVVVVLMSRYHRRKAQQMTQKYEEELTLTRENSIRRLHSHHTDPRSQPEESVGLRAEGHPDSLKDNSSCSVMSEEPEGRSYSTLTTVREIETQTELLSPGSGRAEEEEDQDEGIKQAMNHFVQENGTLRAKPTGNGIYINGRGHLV

[4] = target: T4, human Nectin-4 Mutant 7 (human, UniProt Q96NY8 32-510); assay: as above
T4 construct: Expressed on transfected HEK293T cells; also called S195A/K197T/S199A
T4 chain: T3 chain with P41A, N42G, S164A

[5] = test system: cynomolgus Nectin-4 protein expressed on CHO cells; assay: Species cross-reactivity by flow cytometry on CHO cell lines; format: binding; conditions: FIG. 6B
Experimental: as §1
(§2) The mature amino acid sequence of the proteins expressed by the cells were as follows: […]

[6] = target: T5, mouse Nectin-4 protein expressed on CHO cells (Mus musculus, UniProt Q8R007); assay: as above; format: binding
T5 construct: V5 (N); expressed in transfected cells; host or cells: CHO
T5 sequence (Q8R007 32-508): T2 sequence
Experimental: as §1, §2

[7] = test system: rat Nectin-4 protein expressed on CHO cells; assay: as above; format: binding; conditions: FIG. 6A
Experimental: as §1, §2

Chain of rat Nectin-4 protein expressed on CHO cells (as listed by the source): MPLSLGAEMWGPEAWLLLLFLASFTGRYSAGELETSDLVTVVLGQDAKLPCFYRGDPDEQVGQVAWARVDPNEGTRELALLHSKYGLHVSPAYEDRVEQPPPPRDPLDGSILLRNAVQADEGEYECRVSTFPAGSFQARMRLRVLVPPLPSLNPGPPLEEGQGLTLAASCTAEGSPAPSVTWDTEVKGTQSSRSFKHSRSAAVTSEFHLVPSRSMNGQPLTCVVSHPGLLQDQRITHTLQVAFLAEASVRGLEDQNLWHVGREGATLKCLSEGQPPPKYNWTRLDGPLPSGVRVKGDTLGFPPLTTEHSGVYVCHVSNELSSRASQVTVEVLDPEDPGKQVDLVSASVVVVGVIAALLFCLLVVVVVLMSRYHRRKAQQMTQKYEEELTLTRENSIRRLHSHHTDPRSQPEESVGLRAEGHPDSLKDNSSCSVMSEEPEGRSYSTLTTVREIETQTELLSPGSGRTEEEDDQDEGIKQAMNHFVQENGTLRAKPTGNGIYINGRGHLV
Chain of cynomolgus Nectin-4 protein expressed on CHO cells (as listed by the source): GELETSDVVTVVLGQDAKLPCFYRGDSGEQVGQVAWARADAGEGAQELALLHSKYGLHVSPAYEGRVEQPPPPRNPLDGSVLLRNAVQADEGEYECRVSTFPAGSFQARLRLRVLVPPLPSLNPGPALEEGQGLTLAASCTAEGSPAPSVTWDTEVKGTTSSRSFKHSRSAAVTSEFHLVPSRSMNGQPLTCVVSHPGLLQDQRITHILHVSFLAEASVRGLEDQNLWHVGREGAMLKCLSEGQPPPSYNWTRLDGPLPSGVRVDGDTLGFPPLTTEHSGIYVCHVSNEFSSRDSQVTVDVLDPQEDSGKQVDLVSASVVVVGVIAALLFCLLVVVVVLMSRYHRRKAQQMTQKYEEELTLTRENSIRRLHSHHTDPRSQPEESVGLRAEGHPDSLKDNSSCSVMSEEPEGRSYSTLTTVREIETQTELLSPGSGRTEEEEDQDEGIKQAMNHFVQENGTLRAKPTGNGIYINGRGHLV

B1: chimeric parental 5E7 antibody (antibody, V domains shown)
VH: QVQLQQPGAELVKPGASVKLSCKASGYIFTSYWMHWVKQRPGQGLEWIGEIDPSDSYTNYNQKFKGKATLTLDKSSSTTYMQLSSLTSEDSAVYYCVRGYGNYGDYWGQGTTLTVSS
VL: DVVMTQAAFSNPVTLGTSASISCRSSKSLLHSNGITYLYWYLQKPGQSPQLLIYQMSNLASGVPDRFSSSGSGTDFTLRISRVEAEDVGVYYCAQNLELPWTFGGGTKLEIKR
notes: Chimeric antibody, murine variable domains with human constant regions; also called ch5E7; CHG1-M-1N4-5E7
For B1, the “EC50 (read off the curve)” value [1] was about 0.1 µg/mL and the binding result [2] was “no binding”.

B2: N41 (antibody, V domains shown)
VH: QVQLKQSGPGLVQPSQSLSITCTVSGFSLTNYGVHWVRQSPGKGLEWLGVIWSGGSTDYNAAFISRLSISKDTSKSQVFFKMNSLQADDTAIYYCARELIHAMDNWGQGTSVTVSS
VL: DIQMTQSPASLSVSVGETVTITCRASENIYSNLAWYQQKQGNSPQLLVFAATNLADGVPSRFSGSGSGTQYSLKINSLQSEDFGTYYCQHFWGTPTFGGGTKLEIK
B2: binds [3]; binds [4].

B3: 5E7 (antibody, V domains shown)
VH: QVQLQQPGAELVKPGASVKLSCKASGYIFTSYWMHWVKQRPGQGLEWIGEIDPSDSYTNYNQKFKGKATLTLDKSSSTTYMQLSSLTSEDSAVYYCVRGYGNYGDYWGQGTTLTVSSASTKGP
VL: DVVMTQAAFSNPVTLGTSASISCRSSKSLLHSNGITYLYWYLQKPGQSPQLLIYQMSNLASGVPDRFSSSGSGTDFTLRISRVEAEDVGVYYCAQNLELPWTFGGGTKLEIKRTVAAP
B3 was tested, and the “binding to cynomolgus Nectin 4 protein” value [5] was “bound”, the “binding to mouse Nectin 4 protein” value [6] was “lack binding” and the “binding to rat Nectin 4 protein” value [7] was “bound”.

— patent US20250297004A1, “NECTIN-4 BINDING AGENTS” (INNATE PHARMA, priority 2022, published 2025)
